# In PMC9482650, “Quantitative fragmentomics allow affinity mapping of interactomes” (Nature Communications, 2022):
# T1: ARHGAP21, Q5T5U3
# T1 sequence (Q5T5U3 45-169, limits assumed, looked up): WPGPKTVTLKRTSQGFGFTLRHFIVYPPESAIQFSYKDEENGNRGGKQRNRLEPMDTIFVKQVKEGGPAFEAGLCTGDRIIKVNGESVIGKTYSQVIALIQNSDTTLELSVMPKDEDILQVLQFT
# T2: HTRA3, P83110
# T2 sequence (P83110 354-453, limits assumed, looked up): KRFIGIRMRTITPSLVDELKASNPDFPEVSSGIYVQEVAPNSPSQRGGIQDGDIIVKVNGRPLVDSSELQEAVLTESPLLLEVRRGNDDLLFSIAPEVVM
# T3: GRIP1_3, Q9Y3R0
# T3 sequence (Q9Y3R0 247-346, limits assumed, looked up): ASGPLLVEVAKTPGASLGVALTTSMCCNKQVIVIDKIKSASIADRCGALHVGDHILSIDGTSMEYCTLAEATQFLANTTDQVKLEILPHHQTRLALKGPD
# T4: NHERF3_3, Q5T2W1
# T4 sequence (Q5T2W1 238-333, limits assumed, looked up): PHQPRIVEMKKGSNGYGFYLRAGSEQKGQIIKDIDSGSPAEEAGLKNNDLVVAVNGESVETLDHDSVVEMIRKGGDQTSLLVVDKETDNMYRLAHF
# T5: APBA2_2, Q99767
# T5 sequence (Q99767 654-744, limits assumed, looked up): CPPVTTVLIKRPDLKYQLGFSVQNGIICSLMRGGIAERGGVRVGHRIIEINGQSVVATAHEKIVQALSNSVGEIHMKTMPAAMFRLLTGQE
# T6: FRMPD1, Q5SYB0
# T6 sequence (Q5SYB0 52-145, limits assumed, looked up): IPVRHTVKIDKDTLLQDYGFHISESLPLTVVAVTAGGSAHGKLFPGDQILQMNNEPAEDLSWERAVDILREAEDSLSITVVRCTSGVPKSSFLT
# T7: TJP3_3, O95049
# T7 sequence (O95049 375-456, limits assumed, looked up): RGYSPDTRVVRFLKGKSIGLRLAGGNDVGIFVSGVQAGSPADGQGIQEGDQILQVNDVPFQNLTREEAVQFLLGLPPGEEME
# T8: PDZD7_3, Q9H5P4
# T8 sequence (Q9H5P4 857-944, limits assumed, looked up): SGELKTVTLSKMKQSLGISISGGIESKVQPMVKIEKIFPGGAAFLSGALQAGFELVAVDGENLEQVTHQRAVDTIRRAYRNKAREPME
# T9: LRRC7, Q96NW7
# T9 sequence (Q96NW7 1440-1537, limits assumed, looked up): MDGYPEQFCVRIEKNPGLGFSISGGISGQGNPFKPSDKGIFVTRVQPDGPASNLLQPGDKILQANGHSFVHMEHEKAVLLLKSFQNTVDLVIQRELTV
# T10: APBA2_1, Q99767
# T10 sequence (Q99767 563-664, limits assumed, looked up): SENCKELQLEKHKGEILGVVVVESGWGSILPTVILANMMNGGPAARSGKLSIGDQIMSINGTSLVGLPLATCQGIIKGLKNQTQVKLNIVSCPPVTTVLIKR
# T11: PDZD2_2, O15018
# T11 sequence (O15018 329-429, limits assumed, looked up): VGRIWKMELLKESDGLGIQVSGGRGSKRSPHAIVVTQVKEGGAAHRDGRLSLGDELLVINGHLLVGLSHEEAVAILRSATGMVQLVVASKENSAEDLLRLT
# T12: LNX2_3, Q8N448
# T12 sequence (Q8N448 463-564, limits assumed, looked up): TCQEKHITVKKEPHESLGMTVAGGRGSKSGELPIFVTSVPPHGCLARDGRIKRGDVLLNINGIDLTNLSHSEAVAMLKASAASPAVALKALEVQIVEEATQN
# T13: NHERF3_4, Q5T2W1
# T13 sequence (Q5T2W1 373-468, limits assumed, looked up): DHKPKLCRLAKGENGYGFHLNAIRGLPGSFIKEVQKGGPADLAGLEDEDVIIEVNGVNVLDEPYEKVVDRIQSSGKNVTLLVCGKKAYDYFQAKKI
# B1: FAM71C, Q8NEG0 (peptide)
# chain: STYCDYTIEI
# Target: T1, ARHGAP21, Q5T5U3
# Experiment: holdup assay
# Parameters: key: below the threshold = too weak to quantify, mostly under pKd 3.1 to 4
# Details: plain residues with an end cap or a label only (N-terminal biotin on a linker: ado-ado)
row,pKd,Binder
1,4.13,B1

# Target: MAST1, Q9Y2H9
# Experiment: holdup assay
# Parameters: key: below the threshold = too weak to quantify, mostly under pKd 3.1 to 4
# Details: plain residues with an end cap or a label only (N-terminal biotin on a linker: ado-ado)
# Chain of MAST1, Q9Y2H9 (Q9Y2H9 962-1065): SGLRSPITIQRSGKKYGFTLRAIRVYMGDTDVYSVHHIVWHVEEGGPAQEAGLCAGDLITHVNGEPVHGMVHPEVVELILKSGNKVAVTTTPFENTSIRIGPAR
row,pKd,Binder
1,4.47,B1

# Target: T2, HTRA3, P83110
# Experiment: holdup assay
# Parameters: key: below the threshold = too weak to quantify, mostly under pKd 3.1 to 4
# Details: plain residues with an end cap or a label only (N-terminal biotin on a linker: ado-ado)
row,pKd,Binder
1,4.08,B1

# Target: Inadl_3, Q8NI35
# Experiment: holdup assay
# Parameters: key: below the threshold = too weak to quantify, mostly under pKd 3.1 to 4
# Details: plain residues with an end cap or a label only (N-terminal biotin on a linker: ado-ado)
# Chain of Inadl_3, Q8NI35 (Q8NI35 359-469): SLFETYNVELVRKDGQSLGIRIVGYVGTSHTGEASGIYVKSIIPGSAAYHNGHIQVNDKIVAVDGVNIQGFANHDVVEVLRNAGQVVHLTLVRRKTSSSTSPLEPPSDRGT
row,pKd,Binder
1,5,B1

# Target: T3, GRIP1_3, Q9Y3R0
# Experiment: holdup assay
# Parameters: key: below the threshold = too weak to quantify, mostly under pKd 3.1 to 4
# Details: plain residues with an end cap or a label only (N-terminal biotin on a linker: ado-ado)
row,pKd,Binder
1,below the threshold,B1

# Target: IL16_3, Q14005
# Experiment: holdup assay
# Parameters: key: below the threshold = too weak to quantify, mostly under pKd 3.1 to 4
# Details: plain residues with an end cap or a label only (N-terminal biotin on a linker: ado-ado)
# Chain of IL16_3, Q14005 (Q14005 1107-1207): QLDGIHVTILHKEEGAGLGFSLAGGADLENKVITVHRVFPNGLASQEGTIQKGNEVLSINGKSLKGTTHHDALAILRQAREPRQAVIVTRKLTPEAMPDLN
row,pKd,Binder
1,below the threshold,B1

# Target: TJP1_3, Q07157
# Experiment: holdup assay
# Parameters: key: below the threshold = too weak to quantify, mostly under pKd 3.1 to 4
# Details: plain residues with an end cap or a label only (N-terminal biotin on a linker: ado-ado)
# Chain of TJP1_3, Q07157 (Q07157 416-512): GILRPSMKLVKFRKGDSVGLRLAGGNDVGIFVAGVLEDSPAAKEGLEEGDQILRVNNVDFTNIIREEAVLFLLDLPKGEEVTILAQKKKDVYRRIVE
row,pKd,Binder
1,below the threshold,B1

# Target: DLG1_1, Q12959
# Experiment: holdup assay
# Parameters: key: below the threshold = too weak to quantify, mostly under pKd 3.1 to 4
# Details: plain residues with an end cap or a label only (N-terminal biotin on a linker: ado-ado)
row,pKd,Binder
1,below the threshold,B1

# Target: GRIP2_7, Q9C0E4
# Experiment: holdup assay
# Parameters: key: below the threshold = too weak to quantify, mostly under pKd 3.1 to 4
# Details: plain residues with an end cap or a label only (N-terminal biotin on a linker: ado-ado)
# Chain of GRIP2_7, Q9C0E4 (Q9C0E4 934-1023): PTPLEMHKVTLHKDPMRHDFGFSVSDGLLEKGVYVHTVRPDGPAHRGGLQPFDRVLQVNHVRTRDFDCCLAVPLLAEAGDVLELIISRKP
row,pKd,Binder
1,below the threshold,B1

# Target: T4, NHERF3_3, Q5T2W1
# Experiment: holdup assay
# Parameters: key: below the threshold = too weak to quantify, mostly under pKd 3.1 to 4
# Details: plain residues with an end cap or a label only (N-terminal biotin on a linker: ado-ado)
row,pKd,Binder
1,below the threshold,B1

# Target: T5, APBA2_2, Q99767
# Experiment: holdup assay
# Parameters: key: below the threshold = too weak to quantify, mostly under pKd 3.1 to 4
# Details: plain residues with an end cap or a label only (N-terminal biotin on a linker: ado-ado)
row,pKd,Binder
1,below the threshold,B1

# Target: GOPC, Q9HD26
# Experiment: holdup assay
# Parameters: key: below the threshold = too weak to quantify, mostly under pKd 3.1 to 4
# Details: plain residues with an end cap or a label only (N-terminal biotin on a linker: ado-ado)
row,pKd,Binder
1,below the threshold,B1

# Target: Inadl_5, Q8NI35
# Experiment: holdup assay
# Parameters: key: below the threshold = too weak to quantify, mostly under pKd 3.1 to 4
# Details: plain residues with an end cap or a label only (N-terminal biotin on a linker: ado-ado)
# Chain of Inadl_5, Q8NI35 (Q8NI35 673-780): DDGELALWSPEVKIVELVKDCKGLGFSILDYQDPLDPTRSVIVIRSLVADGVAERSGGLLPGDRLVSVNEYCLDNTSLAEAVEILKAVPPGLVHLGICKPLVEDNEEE
row,pKd,Binder
1,below the threshold,B1

# Target: T6, FRMPD1, Q5SYB0
# Experiment: holdup assay
# Parameters: key: below the threshold = too weak to quantify, mostly under pKd 3.1 to 4
# Details: plain residues with an end cap or a label only (N-terminal biotin on a linker: ado-ado)
row,pKd,Binder
1,below the threshold,B1

# Target: T7, TJP3_3, O95049
# Experiment: holdup assay
# Parameters: key: below the threshold = too weak to quantify, mostly under pKd 3.1 to 4
# Details: plain residues with an end cap or a label only (N-terminal biotin on a linker: ado-ado)
row,pKd,Binder
1,below the threshold,B1

# Target: T8, PDZD7_3, Q9H5P4
# Experiment: holdup assay
# Parameters: key: below the threshold = too weak to quantify, mostly under pKd 3.1 to 4
# Details: plain residues with an end cap or a label only (N-terminal biotin on a linker: ado-ado)
row,pKd,Binder
1,3.55,B1

# Target: LNX1_1, Q8TBB1
# Experiment: holdup assay
# Parameters: key: below the threshold = too weak to quantify, mostly under pKd 3.1 to 4
# Details: plain residues with an end cap or a label only (N-terminal biotin on a linker: ado-ado)
# Chain of LNX1_1, Q8TBB1 (Q8TBB1 261-371): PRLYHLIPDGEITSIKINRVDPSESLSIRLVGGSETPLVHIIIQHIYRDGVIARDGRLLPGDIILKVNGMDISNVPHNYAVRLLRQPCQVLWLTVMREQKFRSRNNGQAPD
row,pKd,Binder
1,below the threshold,B1

# Target: FRMPD3, Q5JV73
# Experiment: holdup assay
# Parameters: key: below the threshold = too weak to quantify, mostly under pKd 3.1 to 4
# Details: plain residues with an end cap or a label only (N-terminal biotin on a linker: ado-ado)
# Chain of FRMPD3, Q5JV73 (Q5JV73 12-100): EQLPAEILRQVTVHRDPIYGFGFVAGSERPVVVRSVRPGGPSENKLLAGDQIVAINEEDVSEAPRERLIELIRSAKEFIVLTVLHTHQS
row,pKd,Binder
1,below the threshold,B1

# Target: T9, LRRC7, Q96NW7
# Experiment: holdup assay
# Parameters: key: below the threshold = too weak to quantify, mostly under pKd 3.1 to 4
# Details: plain residues with an end cap or a label only (N-terminal biotin on a linker: ado-ado)
row,pKd,Binder
1,below the threshold,B1

# Target: T10, APBA2_1, Q99767
# Experiment: holdup assay
# Parameters: key: below the threshold = too weak to quantify, mostly under pKd 3.1 to 4
# Details: plain residues with an end cap or a label only (N-terminal biotin on a linker: ado-ado)
row,pKd,Binder
1,below the threshold,B1

# Target: T11, PDZD2_2, O15018
# Experiment: holdup assay
# Parameters: key: below the threshold = too weak to quantify, mostly under pKd 3.1 to 4
# Details: plain residues with an end cap or a label only (N-terminal biotin on a linker: ado-ado)
row,pKd,Binder
1,4.69,B1

# Target: Inadl_9, Q8NI35
# Experiment: holdup assay
# Parameters: key: below the threshold = too weak to quantify, mostly under pKd 3.1 to 4
# Details: plain residues with an end cap or a label only (N-terminal biotin on a linker: ado-ado)
# Chain of Inadl_9, Q8NI35 (Q8NI35 1530-1615): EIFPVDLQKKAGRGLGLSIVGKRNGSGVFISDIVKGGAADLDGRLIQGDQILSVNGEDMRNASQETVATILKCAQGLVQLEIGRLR
row,pKd,Binder
1,4.19,B1

# Target: T12, LNX2_3, Q8N448
# Experiment: holdup assay
# Parameters: key: below the threshold = too weak to quantify, mostly under pKd 3.1 to 4
# Details: plain residues with an end cap or a label only (N-terminal biotin on a linker: ado-ado)
row,pKd,Binder
1,below the threshold,B1

# Target: T13, NHERF3_4, Q5T2W1
# Experiment: holdup assay
# Parameters: key: below the threshold = too weak to quantify, mostly under pKd 3.1 to 4
# Details: plain residues with an end cap or a label only (N-terminal biotin on a linker: ado-ado)
row,pKd,Binder
1,below the threshold,B1

# Target: DLG2_3, Q15700
# Experiment: holdup assay
# Parameters: key: below the threshold = too weak to quantify, mostly under pKd 3.1 to 4
# Details: plain residues with an end cap or a label only (N-terminal biotin on a linker: ado-ado)
row,pKd,Binder
1,below the threshold,B1
